Values quoted from earlier work, collected in patent publication US20040101532A1, “Methods and compositions for heat shock protein mediated immunotherapy of melanoma” (priority 2004, published 2004).

Key:
[1] = vaccinated patients
tyrosinase = details: vaccinated patients, after immunization with the tyrosinase peptide antigen
[2] = test system: CD8+ cytotoxic T lymphocytes; details: HLA-A*0201-restricted TRP-2 peptides
gp100 = details: detected without extensive preliminary in vitro sensitization

YMDGTMSQV [tyrosinase:368-376 (370D)]
tolerability in clinical trial [1]: well tolerated with little toxicity | increase in T cell responsiveness against tyrosinase by ELISPOT (tyrosinase): Two of nine vaccinated patients showed an increase in T cell responsiveness

TLDSQVMSL [TRP-2(360-368), HLA-A*0201-restricted TRP-2 peptide]
induction of specific CD8+ cytotoxic T lymphocytes [2]: induced specific CD8+ cytotoxic T lymphocytes

VMGTLVALV [TRP-2(476-484), HLA-A*0201-restricted TRP-2 peptide]
induction of specific CD8+ cytotoxic T lymphocytes [2]: induced specific CD8+ cytotoxic T lymphocytes

IMDQVPFSV [gp100:209-217 peptide modified at second position, methionine for threonine]
anti-gp100 T cell reactivity induced by immunization (gp100): induce anti-gp 100 T cell reactivity
